These results are taken from patent publication US20230382979A1 (ADAPTIVE BIOTECHNOLOGIES, published 2023).

Assay [1] concerns the target T1, Receptor-binding domain (RBD) of the SARS-CoV-2 spike protein, WA01/2020 strain (SARS-CoV-2, WA01/2020 strain, UniProt P0DTC2 319-541). Description: dose-response ELISA on coated antigen. For orientation: An ELISA detects its analyte on a solid surface through an enzyme-linked reagent.
Assay [2] deals with SARS-CoV-2 spike protein on live virus, B1.351 (beta variant) (SARS-CoV-2, B1.351). Description: cell-based or functional assay.
The target in assay [3] is T2, SARS-CoV-2 spike protein on live virus, strain USA-WA1/2020 (SARS-CoV-2, WA01/2020 strain, UniProt P0DTC2 14-1273). The experiment in a line: cell-based or functional assay.
Assay [4] concerns the target T2, SARS-CoV-2 spike protein on live virus, …. The experiment in a line: cell-based or functional assay. The source holds these as a separate data set.
Assay [5] addresses SARS-CoV-2 spike protein, B1.1.7 (alpha variant), borne on lentiviral pseudovirus (SARS-CoV-2, B1.1.7). Description: cell-based or functional assay.
Assay [6] deals with SARS-CoV-2 spike protein, B1.351 (beta variant), borne on lentiviral pseudovirus (SARS-CoV-2, B1.351). Description: cell-based or functional assay.
Assay [7] deals with T1, Receptor-binding domain (RBD) of the …. Description: ELISA, antibody blocks RBD binding to human ACE2.
Assay [8] shares this target. Description: SPR (Biacore 8K), antigen immobilized, antibody injected.
The target is the same in assay [9]. Description: ELISA, antibody at 0.1 ug/mL.
Assay [10] has the same target. The experiment in a line: SPR (Biacore), footnote to the Kd of < 4.7* pM.
Assay [11] has the same target. The experiment in a line: dose-response ELISA on WT RBD.

B1: antibody 3091 (antibody, V domains shown)
VH: QMQLVQSGPEVKKPGTSVKVSCKASGFTFSSSAVQWVRQARGQGLEWIGWIVVGSGNANYAQKLQERVSITRDMSTSTAYMELSSLRPEDTAVYYCAAPHCSRTICHDGFDMWGQGTMVTVSS
VL: EIVLTQSPGTLSLSPGERATLSCRASQSVRSSYLAWYQQKPGQAPRLLMFVASSRATGIPDRFSGSGSGTDFTLTISRLEPEDFAVYYCQQYDTSPWTFGQGTKVEIK
B1 returned an EC50 in [1] of 0.03 nM. For the same molecule, the “Live Neut, B1.351 IC50 (pM)” value in assay [2] amounted to 172 pM. In assay [3], the “Live Neut, WA1/2020 IC50 (pM)” value came to 8 pM. Moreover, the “IC50, live virus micro-neutralization WA1/2020” value in assay [4] is 0.055 nM. Further, the “Pseudo Neut, B1.1.7 IC50 (pM)” value in assay [5] is roughly 13 pM. In [6], the “Pseudo Neut, B1.351 IC50 (pM)” value is 78 pM. In addition, the IC50 in assay [7] was found to be 0.56 nM. Also, in [8], the dissociation constant (Kd) turned out to be 0.004 nM.

B2: antibody 2788 (antibody, V domains shown)
VH: QVQLVQSGAEVKKPGASVKVSCKVSGYTLIELSMHWVRQAPGKGLEWMGGFDPEGAETIYAQKFQGRVTMTEDTSTDTAYMELSSLRSDDTAVYYCATGPAVFAANWFDPWGQGTLVTVSS
VL: QSALTQPPSASGSPGQSVTISCTGTSSDIGNYNNVSWYQQHPGKAPKLMIYDVIKRPSGVPDRFSGSKSGNTASLTVSGLQAEDEADYYCSSYAGKSYVFGTGTKVTVL
In the case of B2, the “Live Neut, WA1/2020 IC50 (pM)” value in [3] came out at 117 pM. Also, the binding result in assay [9] is reported as “no binding (tested: 0.1 ug/mL)”.

B3: antibody 1238 (antibody, V domains shown)
VH: QVQLVQSGSELKKPGASVKVSCKASGYTFTNYGMNWVRQAPGQGLEWMGWINTNTGNPTNAQGFTGRFVFSLDTSVSTAYLQINSLKGEDTAVYYCARVADTGEMDVWGQGTTVTVSS
VL: SYELTQPPSVSVSPGQTARITCSGDALPKQYAYWYQQKPGQAPVLVIYKDSERPSGIPERFSGSSSGTTVTLTISGVQAEDEADYYCQSADSSGSYNWVFGGGTKLTIL
As for B3, the “Live Neut, WA1/2020 IC50 (pM)” value in [3] came to 400 pM. For the same molecule, the binding result in [9] is given as “no binding (tested: 0.1 ug/mL)”.

B4: antibody 2019 (antibody, V domains shown)
VH: QVQLVESGGGVVQPGGSLSLSCAASGLSFSSYGMHWVRQAPGKGLEWVAFIRYDVSNKYYADSVKGRFTISRDNSKNTLYLQMNSLRVEDTAVYYCATWAPLDDGMDVWGQGTTVTVSS
VL: SYELTQPPSVSVSPGQTARITCSGDALPKQYAYWYQQKPGQAPVLVIYKDTERPSGIPERFSGSSSGTTVTLTISGVQAEDEADYYCQSGDSSGTFYVVFGGGTKLTVL
With B4, the “Live Neut, WA1/2020 IC50 (pM)” value in assay [3] worked out at 107 pM. Further, in assay [9], the binding result was “no binding (tested: 0.1 ug/mL)”.

B5: antibody 2866 (antibody, V domains shown)
VH: QVQLVQSGAEVKKPGSSVKVSCKASGGTFSSYSISWVRQAPGQGLEWMGGLAPIFHTPNYAQKFQGRVTITADESTSTAYMELSSLRSEDTAVYYCARVAGAGWGVYGAFDYWGQGTLVTVSS
VL: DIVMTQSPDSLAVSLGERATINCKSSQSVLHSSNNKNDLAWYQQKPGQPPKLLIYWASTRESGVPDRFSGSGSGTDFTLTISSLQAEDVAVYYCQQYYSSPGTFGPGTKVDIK
For the molecule B5, the “Live Neut, WA1/2020 IC50 (pM)” value in assay [3] worked out at 649 pM. In addition, the binding result in assay [9] is reported as “no binding (tested: 0.1 ug/mL)”.

B6: antibody 2024 (antibody, V domains shown)
VH: QVQLVQSGAEVKKPGASVKVSCKVSGYTLIELSMHWVRQAPGKGLEWMGGFDPEEGETIYAQKFQGRVTMTEDTSTDTAYMELSSLRSEDTAVYYCTTSPPVGATGAWFDPWGQGTLVTVSA
VL: SYVLTQPPSVSVAPGKTARITCGGNNIGSKSVHWYQQKPGQAPVLVVYDDSDRPSGIPERFSGSNSGNTATLTISGLQAEDEADYYCSSYTSSSTVVFGGGTKLTVL
As to B6, the “Live Neut, WA1/2020 IC50 (pM)” value in assay [3] is 95 pM. In assay [9], the binding result is recorded as “no binding (tested: 0.1 ug/mL)”.

B7: antibody 1589 (antibody, V domains shown)
VH: EVQLVESGGGLIQVGGSLRLSCAASGLTVTSNYMNWVRQGPGKGLEWVSLIYSGGTTYYADSVKGRFTISRDDSKNTLYLQMNSLRAEDTAVYYCARPIVGARSGMDVWGQGTAVTVSS
VL: DIQMTQSPSSLSASVGDRVTITCQASQDINKYLNWYQQKPGKAPKLLIYDASNLETGVPSRFSGSGSGTDFTFTISSLQPEDLATYYCHQFDNLPGTFGGGTKVEIK
Consider B7, for which, in assay [1], a half-maximal effect (EC50) was put at 0.036 nM. For the same molecule, in [10], the koff was less than 1e-06 s⁻¹. Besides, the “Live Neut, B1.351 IC50 (pM)” value in assay [2] came to 167 pM. Also, the “Live Neut, WA1/2020 IC50 (pM)” value in assay [3] came out at 43 pM. Moreover, the “IC50, live virus micro-neutralization WA1/2020” value in assay [4] is 0.0667 nM. Besides, the “Pseudo Neut, B1.1.7 IC50 (pM)” value in assay [5] was found to be 133 pM. Further, in [6], the “Pseudo Neut, B1.351 IC50 (pM)” value was found to be 137 pM. Moreover, in [7], the IC50 amounted to 0.52 nM. Moreover, in assay [8], the Kd is less than 0.0047 nM.

B8: antibody 2793 (antibody, V domains shown)
VH: QVQLVQSGAEVKKPGASVKVSCKVSGFTLPELSIHWVRQAPGKGLEWMGGFDPEDAKTIYAQKFQGRVTMTEDTSTDIAYMELNSLRSDDTAVYYCATGSPFGVVGNWLDPWGQGTLVTVSS
VL: QSALTQPASVSGSPGQSITISCTGTSSDVGDFSYVSWYQQHPGKAPKLMIYEVTKRPSGVSNRFSGSKSGNTASLTISGLQTEDEADYYCTSYTSSRLVLFGGGTKLTVL
With B8, the “Live Neut, WA1/2020 IC50 (pM)” value in [3] was determined as 77 pM. In addition, in assay [9], the binding result is on record as “no binding (tested: 0.1 ug/mL)”.

B9: antibody 2854 (antibody, V domains shown)
VH: QVQLVQSGAEVKKPGSSVKVSCKASGGTFSSYAISWVRQAPGQGLEWMGGIIPIFHTANYAQKFQGRVTITADESTSTTYVELSSLRSEDTAMYYCATLPITIFGEEYSFDNWGQGTLVTVSS
VL: DVVMTQSPLSLPVTLGQPASISCRSSQSLVHSDGNTYLSWFQQRPGQSPRRLIYKVSDRDSGVPDRFSGSGSGTDFTLKISRVEAEDVGIYYCMQGTHWPPLTFGGGTKVEIK
In the case of B9, in assay [3], the “Live Neut, WA1/2020 IC50 (pM)” value is 164 pM. Besides, the binding result in assay [9] is given as “no binding (tested: 0.1 ug/mL)”.

B10: antibody 2729 (antibody, V domains shown)
VH: QVTLKESGPVLVKPTETLTLTCTVSGFSLSNARMGVSWIRQPPGKALEWLAHIFSNDEKSYSTYLKSRLTISKDSSKSQVVLTMTIMDPVDTATYYCARTAGRYSSRWGHYYYYMDVWGKGTTVTVSS
VL: NFMLTQPHSVSESPGKTVTISCTGSNGSIASNFMQWYQQRPGSAPTIVIYEDNQRPSGVPDRFSGSIDGSSNSASLTISGLKTEDEADYYCQSYDSSDSDLGVFGGGTKLTVL
In turn, B10 returned an EC50 in [1] of 0.037 nM. For the same molecule, the “Live Neut, WA1/2020 IC50 (pM)” value in assay [3] was 111 pM. In addition, the “IC50, live virus micro-neutralization WA1/2020” value in [4] was found to be 0.272 nM. The “Pseudo Neut, B1.1.7 IC50 (pM)” value in assay [5] was 93 pM. Also, the “Pseudo Neut, B1.351 IC50 (pM)” value in assay [6] worked out at 793 pM. The “EC50 (read off the curve)” value in [11] is roughly 0.01 µg/mL. In assay [7], the IC50 is roughly 0.66 nM. Further, in assay [8], the equilibrium dissociation constant (Kd) was 0.015 nM.

B11: antibody 3995 (antibody, V domains shown)
VH: EVQLVQSGAEVKKPGSSVKVSCKASGGTFSMHTIRWVRQAPGQGLEWMGRIIPMLGIVNYAQKFQGRVTISADKSTSTAYMELSSLTSEDTAMYYCAKGSHDVFDIWGQGTMVTVSS
VL: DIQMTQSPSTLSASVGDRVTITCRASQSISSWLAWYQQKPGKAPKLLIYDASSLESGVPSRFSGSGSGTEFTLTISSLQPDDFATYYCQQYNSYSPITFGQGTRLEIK
Molecule B11 gave an EC50 in assay [1] of 0.021 nM. In assay [2], the “Live Neut, B1.351 IC50 (pM)” value stood at 135 pM. In [3], the “Live Neut, WA1/2020 IC50 (pM)” value amounted to 51 pM. For the same molecule, the “IC50, live virus micro-neutralization WA1/2020” value in assay [4] is 0.041 nM. Also, in assay [5], the “Pseudo Neut, B1.1.7 IC50 (pM)” value was 667 pM. For the same molecule, in assay [6], the “Pseudo Neut, B1.351 IC50 (pM)” value stood at 2830 pM. In assay [7], this molecule yielded an IC50 of 0.692 nM. Moreover, in [8], the Kd amounted to 0.057 nM.

B12: antibody 2619 (antibody, V domains shown)
VH: EVQLVESGGGLVQPGRSLRLSCAASGFTFDDYAMHWVRQAPGKGLEWVSGISWNSGSIGYADSVKGRFTLSRDNAKNSLFLQMDSLRAEDTALYYCAKDVSYRSGSYYRFWGGSGSWGQGTLVTVSS
VL: DIQMTQSPSSLSASVGDRVTITCRASLSIRSYLNWYQQKPGKPPKLLIYAASSLQSGVPSRFSGSGSGTDFTLTISSLQPEDFATYYCQQSYSTPLTFGGGTKVEIK
With B12, the midpoint of the response in assay [1], the EC50, lay at 0.037 nM. The “Live Neut, WA1/2020 IC50 (pM)” value in [3] was 118 pM. For the same molecule, in assay [5], the “Pseudo Neut, B1.1.7 IC50 (pM)” value was roughly 7 pM. The “EC50 (read off the curve)” value in [11] is roughly 0.02 µg/mL. The IC50 in [7] came out at 0.479 nM. This molecule also displayed a Kd in [8] of 0.105 nM.

The term EC50 denotes the concentration needed to bring the measured effect to its halfway point. Read a high EC50 as lower potency in that assay. For orientation: IC50 means the concentration that gives 50% inhibition. As a reminder, the Kd is the equilibrium constant for the complex coming apart. The koff is the rate constant with which the complex falls apart. A higher koff goes with fast dissociation. In general, EC50 (read off the curve) refers to the concentration needed to bring the measured effect to its halfway point. Read a low EC50 (read off the curve) as higher potency in that assay.
